Changes are numbered by the printed parent chain.
B1: SRP2194-B01 (antibody, IgG1, V domains shown)
VH: EVQLVESGGGLVQPGGSLRLSCAASGFNIASYYIHWVRQAPGKGLEWVGYISPLAGNTYHADSVKGRFTISADTSKNTAYLQMNSLRAEDTAVYYCARDSRRYVRPFDYWGQGTLVTVSS
VL: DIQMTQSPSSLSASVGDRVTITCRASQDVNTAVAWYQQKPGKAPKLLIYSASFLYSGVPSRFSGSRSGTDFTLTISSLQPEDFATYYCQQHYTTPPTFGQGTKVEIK
notes: His/FLAG-tagged IgG1, cell-free; also called Antibody 140
B2: SRP2194-B04 (antibody, IgG1, V domains shown)
VH: B1 VH with A30T, S31G, Y33H, A97T, F107L
VL: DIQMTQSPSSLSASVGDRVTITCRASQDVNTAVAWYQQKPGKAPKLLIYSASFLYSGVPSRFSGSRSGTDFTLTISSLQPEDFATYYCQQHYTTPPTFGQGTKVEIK
notes: His/FLAG-tagged IgG1, cell-free; also called Antibody 129
B3: SRP2194-A07 (antibody, IgG1, V domains shown)
VH: B1 VH with I29F, A30T, S31D
VL: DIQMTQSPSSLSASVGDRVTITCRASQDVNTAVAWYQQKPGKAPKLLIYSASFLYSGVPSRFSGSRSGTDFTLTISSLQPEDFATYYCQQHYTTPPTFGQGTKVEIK
notes: His/FLAG-tagged IgG1, cell-free
B4: SRP2194-A04 (antibody, IgG1, V domains shown)
VH: B1 VH with A30T, S31G, Y59H, F107L
VL: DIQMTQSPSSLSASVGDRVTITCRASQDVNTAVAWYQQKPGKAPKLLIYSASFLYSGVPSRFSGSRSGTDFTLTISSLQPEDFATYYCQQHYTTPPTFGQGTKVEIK
notes: as for B3
B5: SRP2193-B02 (antibody, IgG1, V domains shown)
VH: EVQLVESGGGLVQPGGSLRLSCAASGFNIKNSYIHWVRQAPGKGLEWVGTIDPTRGSTVHADSVKGRFTISADTSKNTAYLQMNSLRAEDTAVYYCARSRWFRVLWSYVFDYWGQGTLVTVSS
VL: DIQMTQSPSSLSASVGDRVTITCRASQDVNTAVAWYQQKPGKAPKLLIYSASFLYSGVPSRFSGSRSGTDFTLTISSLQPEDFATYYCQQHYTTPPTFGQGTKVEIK
notes: His/FLAG-tagged IgG1, cell-free; also called Antibody 77
B6: SRP2193-E08 (antibody, IgG1, V domains shown)
VH: B5 VH with K30N, N31E, S32Y, T50A, T54H, R55S, V59N, H60F, F102Y
VL: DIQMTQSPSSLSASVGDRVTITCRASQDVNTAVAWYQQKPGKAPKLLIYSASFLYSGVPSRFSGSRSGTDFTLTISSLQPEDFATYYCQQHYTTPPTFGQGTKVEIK
notes: His/FLAG-tagged IgG1, cell-free; also called Antibody 87
B7: SRP2193-B04 (antibody, IgG1, V domains shown)
VH: B5 VH with K30S, T50A, D52E, T54K, R55N, V59H, S107T
VL: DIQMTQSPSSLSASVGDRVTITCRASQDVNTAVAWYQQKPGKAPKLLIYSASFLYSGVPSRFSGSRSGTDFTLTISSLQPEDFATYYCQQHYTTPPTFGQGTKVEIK
notes: as for B3
B8: SRP2193-C04 (antibody, IgG1, V domains shown)
VH: B5 VH with K30N, N31T, T50A, T54K, R55S, V59N, H60F, T74A, F110L
VL: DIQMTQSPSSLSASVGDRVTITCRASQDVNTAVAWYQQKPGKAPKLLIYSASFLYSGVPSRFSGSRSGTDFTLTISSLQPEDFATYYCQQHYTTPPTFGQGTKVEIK
notes: His/FLAG-tagged IgG1, cell-free; also called Antibody 86
B9: SRP2193-E11 (antibody, IgG1, V domains shown)
VH: EVQLVESGGGLVQPGGSLRLSCAASGFNINDYYIHWVRQAPGKGLEWVGGIEPNSGATVFADSVKGRFTIGADTSKNTAYLQMNSLRAEDTAVYYCARSRWYRVLWSYVFHYWGQGTLVTVSS
VL: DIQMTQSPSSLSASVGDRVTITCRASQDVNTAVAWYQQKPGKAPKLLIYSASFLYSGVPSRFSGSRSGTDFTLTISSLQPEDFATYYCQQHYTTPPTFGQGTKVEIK
notes: His/FLAG-tagged IgG1, cell-free; also called Antibody 79
B10: SRP2193-E01 (antibody, IgG1, V domains shown)
VH: B5 VH with N31G, S32K, T50A, T54K, R55S, V59A, V93A, S107T
VL: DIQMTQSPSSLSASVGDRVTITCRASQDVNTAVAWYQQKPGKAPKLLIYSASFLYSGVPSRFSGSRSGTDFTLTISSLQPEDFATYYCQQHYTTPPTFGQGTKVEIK
notes: His/FLAG-tagged IgG1, cell-free; also called Antibody 120
B11: SRP2193-B03 (antibody, IgG1, V domains shown)
VH: B5 VH with K30R, N31D, S32Y, T50A, T54V, R55S, V59L, H60F, A92E
VL: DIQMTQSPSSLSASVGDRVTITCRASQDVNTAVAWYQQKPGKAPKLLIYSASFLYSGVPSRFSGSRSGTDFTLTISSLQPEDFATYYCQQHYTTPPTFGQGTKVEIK
notes: His/FLAG-tagged IgG1, cell-free; also called Antibody 82
B12: SRP2193-D10 (antibody, IgG1, V domains shown)
VH: B5 VH with K30N, N31V, G49A, T54N, R55S, S57F
VL: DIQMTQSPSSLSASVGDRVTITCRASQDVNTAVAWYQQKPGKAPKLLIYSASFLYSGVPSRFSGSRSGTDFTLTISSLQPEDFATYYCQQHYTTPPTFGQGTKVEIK
notes: His/FLAG-tagged IgG1, cell-free; also called Antibody 92
B13: SRP2193-E03 (antibody, IgG1, V domains shown)
VH: B5 VH with K30T, N31A, T50A, T54K, R55G, V59R, H60F
VL: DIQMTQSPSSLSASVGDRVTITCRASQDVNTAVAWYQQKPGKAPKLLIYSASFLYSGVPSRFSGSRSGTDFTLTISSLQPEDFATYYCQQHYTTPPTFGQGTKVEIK
notes: His/FLAG-tagged IgG1, cell-free; also called Antibody 98

Biological target: T1, human ROR1 (hROR1) (human, UniProt Q01973 30-937)
T1 construct: On HCT116-hROR1 transfectants, Mino cells or Ntera-2 cells, as the assay of each row says; also called receptor tyrosine kinase like orphan receptor 1
Assay: flow cytometry, HCT116-hROR1 cells
Procedure: A mix of ROR1 positive and negative cells was prepared as follows. Ror1 negative cells were washed 2× in PBS then incubated in PBS containing 1 nM CellTrace™ Oregon Green488® (Life Technologies) at 37° C. for 30 minutes. Cells were then washed 2× with RPMI w/10% fetal calf serum (or FCS), washed 2× with FACS buffer (PBS+0.5% BSA), suspended thoroughly in ice-cold FACS buffer at a final concentration of 4×10^6 cells/ml and kept on ice. ROR1 positive cells were washed 2× in PBS and suspended with ice-cold FACS buffer at 4×10^6 cells/ml. ROR1 positive and negative cells were then mixed to obtain a 1-1 cell suspension and seeded at 50 μl per well on 96 well polypropylene plates. 50 μl of 6-12 point dilutions of anti-ROR1 variants starting from concentrations of ˜100-200 nM antibody was dispensed using BioMekFX (Beckman Coulter) into each well. Cells were then incubated on ice for 1 hr, washed with FACS buffer and incubated for 1 hr on ice with 50 μl FACS buffer containing 2.5 μg/ml Alexa647-conjugated Goat Anti-Human IgG dispensed using BioMekFX (Beckman Coulter). Cells were then washed 2× with FACS buffer and fixed for 10 minutes in 200 μl PBS with 2% PFA prior to fluorescence detection. Samples were acquired using a Beckton Dickinson LSRII FACS. Mean Fluorescence Intensity of ROR1 antibody binding was analyzed using FlowJo® software (Tree Star, Inc.).

**Q.** Which results are given for B1?
**A.** Bmax (MFI): 8860 MFI; Kd: 0.14 nM

**Q.** What does the source list for B2?
**A.** Bmax (MFI): 9300 MFI; Kd: 0.2 nM

**Q.** With B3 as the binder, how does the “Bmax (MFI)” value read?
**A.** 8770 MFI

**Q.** What about the Kd of the same binder?
**A.** 0.41 nM

**Q.** Which results are given for B4?
**A.** Bmax (MFI): 9050 MFI; Kd: 0.16 nM

**Q.** What does the source list for B5?
**A.** Bmax (MFI): 15600 MFI; Kd: 0.28 nM

**Q.** Which results are given for B6?
**A.** Bmax (MFI): 15100 MFI; Kd: 4.28 nM

**Q.** For B7, which “Bmax (MFI)” value is on record?
**A.** 15600 MFI

**Q.** And the Kd?
**A.** 0.4 nM

**Q.** With B8 as the binder, how does the “Bmax (MFI)” value read?
**A.** 14900 MFI

**Q.** What about the Kd of the same binder?
**A.** 0.18 nM

**Q.** For B9, which “Bmax (MFI)” value is on record?
**A.** 25400 MFI

**Q.** What about the Kd of the same binder?
**A.** 1.33 nM

**Q.** Which “Bmax (MFI)” value does the source give for B10 here?
**A.** 17000 MFI

**Q.** And the Kd?
**A.** 0.13 nM

**Q.** For B11, which “Bmax (MFI)” value is on record?
**A.** 15500 MFI

**Q.** And the Kd?
**A.** 0.67 nM

**Q.** How did the “Bmax (MFI)” value turn out when B12 was run?
**A.** 14800 MFI

**Q.** What about the Kd of the same binder?
**A.** 0.64 nM

**Q.** How did the “Bmax (MFI)” value turn out when B13 was run?
**A.** 14800 MFI

**Q.** What about the Kd of the same binder?
**A.** 0.19 nM

Biological target: T2, human ROR1 Frizzled domain (hROR1-Fz) (human, UniProt Q01973 165-305)
T2 construct: Acro Biosystems, made in HEK293
Assay: SPR Biacore, IgG on anti-Fc, ROR1-Fz analyte
Procedure: Anti-Fc polyclonal antibodies were immobilized onto a CMS chip (GE Life Sciences) using amine coupling chemistry (from Amine Coupling Kit, GE Life Sciences). The immobilization steps were carried out at a flow rate of 25 μL/min in 1×HBS-EP+buffer (GE Life Sciences; 10× Stock diluted before use). The sensor surfaces were activated for 7 min with a mixture of NHS (0.05 M) and EDC (0.2 M). The Anti-Fc antibodies were injected over all 4 flow cells at a concentration of 25 ug/ml in 10 mM sodium acetate, pH 4.5, for 7 min. Ethanolamine (1 M, pH 8.5) was injected for 7 min to block any remaining activated groups.
Off-rate and kinetic binding experiments were performed at 25° C. using 1×HBS-EP+buffer. Test and control antibodies were injected over the anti-Fc surface at concentrations of 5-10 μg/mL for 12 seconds at a flow rate of 10 μL/min on flow cells 2, 3 and 4, followed by a buffer wash for 30 seconds at the same flow rate. […] After capturing ligand (antibody) on the anti-Fc surface, the analyte (hROR1, Fz or Kr domains, Acro Biosystems, Delaware) was bound for 180 seconds, followed by a 600 second dissociation phase at a flow rate of 50 μL/min. Between each ligand capture and analyte binding cycle, regeneration was carried out using 2 injections of 10 mM Glycine pH 2.0 for 30 seconds at 30 μL/min, followed by a 30 second buffer wash step.

**Q.** With B1 as the binder, how does the Kd read?
**A.** 3.12 nM

**Q.** And the koff?
**A.** 0.000857 s⁻¹

**Q.** And the kon?
**A.** 274000 M⁻¹ s⁻¹

**Q.** Which results are given for B2?
**A.** Kd: 1.44 nM; koff: 0.000392 s⁻¹; kon: 271000 M⁻¹ s⁻¹

**Q.** With B3 as the binder, how does the Kd read?
**A.** 1.61 nM

**Q.** What about the koff of the same binder?
**A.** 0.000275 s⁻¹

**Q.** What about the kon of the same binder?
**A.** 171000 M⁻¹ s⁻¹

**Q.** How did the Kd turn out when B4 was run?
**A.** 1.84 nM

**Q.** What about the koff of the same binder?
**A.** 0.000364 s⁻¹

**Q.** What about the kon of the same binder?
**A.** 198000 M⁻¹ s⁻¹

**Q.** How did the Kd turn out when B5 was run?
**A.** 2.35 nM

**Q.** What about the koff of the same binder?
**A.** 0.000511 s⁻¹

**Q.** And the kon?
**A.** 218000 M⁻¹ s⁻¹

**Q.** What does the source list for B6?
**A.** Kd: 3.96 nM; koff: 0.000651 s⁻¹; kon: 164000 M⁻¹ s⁻¹

**Q.** With B7 as the binder, how does the Kd read?
**A.** 0.778 nM

**Q.** What about the koff of the same binder?
**A.** 0.000134 s⁻¹

**Q.** And the kon?
**A.** 172000 M⁻¹ s⁻¹

**Q.** Which results are given for B8?
**A.** Kd: 1.19 nM; koff: 0.000207 s⁻¹; kon: 173000 M⁻¹ s⁻¹

**Q.** What does the source list for B9?
**A.** Kd: 1.28 nM; koff: 0.000474 s⁻¹; kon: 370000 M⁻¹ s⁻¹

**Q.** Which Kd does the source give for B10 here?
**A.** 1.06 nM

**Q.** And the koff?
**A.** 0.000242 s⁻¹

**Q.** What about the kon of the same binder?
**A.** 228000 M⁻¹ s⁻¹

**Q.** Which results are given for B11?
**A.** Kd: 2.96 nM; koff: 0.000505 s⁻¹; kon: 170000 M⁻¹ s⁻¹

**Q.** For B12, which Kd is on record?
**A.** 3.62 nM

**Q.** What about the koff of the same binder?
**A.** 0.000379 s⁻¹

**Q.** And the kon?
**A.** 105000 M⁻¹ s⁻¹

**Q.** Which Kd does the source give for B13 here?
**A.** 1.14 nM

**Q.** And the koff?
**A.** 0.000294 s⁻¹

**Q.** What about the kon of the same binder?
**A.** 259000 M⁻¹ s⁻¹
